{"source": "paper PMC4245953", "about": "“Hug1 is an intrinsically disordered protein that inhibits ribonucleotide reductase activity by directly binding Rnr2 subunit” (Nucleic Acids Research, 2014)", "molecules": {"B1": {"name": "Recombinant Hug1 (tags cleaved), 15N-labeled (natural protein, S. cerevisiae, UniProt Q6Q5K6 1-68, looked up)", "chain": "MTMDQGLNPKQFFLDDVVLQDTLCSMSNRVNKSVKTGYLFPKDHVPSANIIAVERRGGLSDIGKNTSN", "modifications": "also: uniformly 15N-labeled", "notes": "Hug1, S. cerevisiae, released from (His)6-GST-TEV site-Hug1 by TEV protease; calculated mass 7.5 kDa; protein of 68 residues; also called 15N-Hug1; purified recombinant Hug1; source: E. coli BL21 (DE3) gold, purified (Glutathione-agarose, TEV cleavage, Ni-NTA flow-through); not shown: His6, N-terminal, cleaved; GST, N-terminal, cleaved"}}, "key": {"[1]": {"molecular_target": "Cdc22 (R1) (Schizosaccharomyces pombe) (UniProt P36602)", "sequence (P36602 whole entry)": "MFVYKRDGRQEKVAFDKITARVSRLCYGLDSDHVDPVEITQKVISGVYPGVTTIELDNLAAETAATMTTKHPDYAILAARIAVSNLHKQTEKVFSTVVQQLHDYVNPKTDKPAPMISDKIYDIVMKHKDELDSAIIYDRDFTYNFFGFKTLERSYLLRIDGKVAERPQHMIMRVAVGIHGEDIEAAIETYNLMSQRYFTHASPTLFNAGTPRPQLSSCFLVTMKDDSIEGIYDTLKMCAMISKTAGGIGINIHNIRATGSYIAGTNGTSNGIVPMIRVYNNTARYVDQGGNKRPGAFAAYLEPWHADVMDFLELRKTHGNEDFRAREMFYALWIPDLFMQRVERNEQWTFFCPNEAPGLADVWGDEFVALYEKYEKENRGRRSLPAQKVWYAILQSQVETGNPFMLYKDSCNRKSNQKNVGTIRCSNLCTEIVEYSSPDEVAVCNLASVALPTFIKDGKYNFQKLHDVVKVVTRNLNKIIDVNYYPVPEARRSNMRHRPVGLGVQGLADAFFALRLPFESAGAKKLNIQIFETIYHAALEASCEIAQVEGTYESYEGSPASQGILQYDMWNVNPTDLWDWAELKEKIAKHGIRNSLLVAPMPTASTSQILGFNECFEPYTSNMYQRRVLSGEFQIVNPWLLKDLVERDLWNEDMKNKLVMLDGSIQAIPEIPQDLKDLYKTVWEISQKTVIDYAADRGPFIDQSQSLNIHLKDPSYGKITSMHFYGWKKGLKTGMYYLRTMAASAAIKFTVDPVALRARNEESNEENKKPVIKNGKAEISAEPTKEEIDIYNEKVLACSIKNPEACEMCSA", "details": "cited from earlier work"}, "[2]": {"molecular_target": "RNR R2 (Escherichia coli) (UniProt P69924)", "sequence (P69924 2-376)": "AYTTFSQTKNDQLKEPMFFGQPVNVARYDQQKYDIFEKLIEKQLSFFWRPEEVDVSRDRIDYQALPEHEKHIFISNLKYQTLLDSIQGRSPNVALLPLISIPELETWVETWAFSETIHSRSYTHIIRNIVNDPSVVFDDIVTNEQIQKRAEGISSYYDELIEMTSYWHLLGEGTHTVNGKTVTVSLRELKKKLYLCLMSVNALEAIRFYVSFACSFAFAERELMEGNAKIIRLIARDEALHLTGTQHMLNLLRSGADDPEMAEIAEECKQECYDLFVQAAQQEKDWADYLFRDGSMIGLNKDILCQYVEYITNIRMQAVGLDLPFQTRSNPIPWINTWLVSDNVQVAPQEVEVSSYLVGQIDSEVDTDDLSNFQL", "details": "cited from earlier work"}, "[3]": {"molecular_target": "Rnr2-Rnr4 (Saccharomyces cerevisiae) (UniProt P09938)", "details": "cited from earlier work"}, "[4]": {"molecular_target": "Rnr1 (Saccharomyces cerevisiae) (UniProt P21524)", "sequence (P21524 whole entry)": "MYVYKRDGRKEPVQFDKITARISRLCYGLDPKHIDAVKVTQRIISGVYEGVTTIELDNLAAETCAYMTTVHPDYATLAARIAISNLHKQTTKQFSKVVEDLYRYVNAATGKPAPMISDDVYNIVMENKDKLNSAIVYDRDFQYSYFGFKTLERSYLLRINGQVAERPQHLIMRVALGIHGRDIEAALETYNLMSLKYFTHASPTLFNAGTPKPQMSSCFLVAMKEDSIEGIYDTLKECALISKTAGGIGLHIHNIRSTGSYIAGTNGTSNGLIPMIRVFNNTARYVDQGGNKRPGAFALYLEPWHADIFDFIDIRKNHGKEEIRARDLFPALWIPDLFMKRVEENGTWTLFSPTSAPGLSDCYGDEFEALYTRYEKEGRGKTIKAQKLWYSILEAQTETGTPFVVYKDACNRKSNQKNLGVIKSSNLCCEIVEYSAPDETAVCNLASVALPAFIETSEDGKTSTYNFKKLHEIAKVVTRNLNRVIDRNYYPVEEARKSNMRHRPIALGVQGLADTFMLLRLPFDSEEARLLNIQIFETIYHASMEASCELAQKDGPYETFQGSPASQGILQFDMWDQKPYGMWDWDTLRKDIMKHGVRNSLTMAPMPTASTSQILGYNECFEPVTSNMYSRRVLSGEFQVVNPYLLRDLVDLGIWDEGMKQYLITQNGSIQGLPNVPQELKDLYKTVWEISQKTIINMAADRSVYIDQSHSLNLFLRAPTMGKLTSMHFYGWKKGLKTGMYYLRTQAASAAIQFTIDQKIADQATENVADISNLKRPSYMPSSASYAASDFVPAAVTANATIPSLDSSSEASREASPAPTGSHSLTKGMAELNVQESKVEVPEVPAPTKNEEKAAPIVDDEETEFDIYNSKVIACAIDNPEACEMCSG", "details": "cited from earlier work"}, "[5]": {"molecular_target": "RNR R2 (Mus musculus) (UniProt P11157)", "sequence (P11157 whole entry)": "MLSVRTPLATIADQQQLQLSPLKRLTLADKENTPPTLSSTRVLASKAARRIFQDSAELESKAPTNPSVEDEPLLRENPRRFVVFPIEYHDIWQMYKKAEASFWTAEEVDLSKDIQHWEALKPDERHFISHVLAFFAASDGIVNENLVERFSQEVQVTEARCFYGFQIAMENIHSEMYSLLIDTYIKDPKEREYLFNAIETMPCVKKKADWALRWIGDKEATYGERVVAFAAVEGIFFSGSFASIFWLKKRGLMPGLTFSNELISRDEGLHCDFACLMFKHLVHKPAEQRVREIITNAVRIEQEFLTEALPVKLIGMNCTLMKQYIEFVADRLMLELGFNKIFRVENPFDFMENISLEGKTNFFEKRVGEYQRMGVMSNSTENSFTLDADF", "details": "cited from earlier work"}, "[6]": {"molecular_target": "T1, (His)6-Rnr2-Rnr4 complex (S. cerevisiae, UniProt P09938 1-399; P49723 1-345)", "T1 construct": "Rnr2, S. cerevisiae; Rnr4, S. cerevisiae; also called Rnr2/4; source: E. coli BL21 (DE3) gold, co-expressed; purified (Ni-NTA, anion exchange) for NMR; 'purified' by the text or 'soluble extracts' by the legend in the pull-down", "T1 sequence (looked up) 1": "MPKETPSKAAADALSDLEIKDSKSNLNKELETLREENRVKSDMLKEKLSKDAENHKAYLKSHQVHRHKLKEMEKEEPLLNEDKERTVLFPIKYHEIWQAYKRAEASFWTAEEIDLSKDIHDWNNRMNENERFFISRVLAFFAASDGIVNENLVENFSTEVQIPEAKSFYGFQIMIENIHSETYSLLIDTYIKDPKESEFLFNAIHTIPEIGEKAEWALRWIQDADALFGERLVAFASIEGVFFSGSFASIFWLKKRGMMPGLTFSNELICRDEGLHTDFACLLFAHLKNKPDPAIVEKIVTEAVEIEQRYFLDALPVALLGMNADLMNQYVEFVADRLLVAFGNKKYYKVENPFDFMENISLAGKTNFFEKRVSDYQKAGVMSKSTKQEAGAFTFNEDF", "T1 sequence (looked up) 2": "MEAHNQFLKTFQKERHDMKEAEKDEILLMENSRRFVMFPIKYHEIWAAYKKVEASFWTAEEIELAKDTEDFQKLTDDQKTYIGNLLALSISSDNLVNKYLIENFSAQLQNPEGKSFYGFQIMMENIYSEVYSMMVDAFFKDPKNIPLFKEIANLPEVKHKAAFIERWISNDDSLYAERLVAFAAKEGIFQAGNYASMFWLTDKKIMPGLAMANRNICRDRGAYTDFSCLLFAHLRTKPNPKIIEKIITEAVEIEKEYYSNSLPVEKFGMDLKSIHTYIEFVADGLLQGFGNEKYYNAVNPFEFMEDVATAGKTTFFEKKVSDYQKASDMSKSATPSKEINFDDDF", "assay": "NMR titration; 1H-15N HSQC of 15N-Hug1 with increasing unlabeled (His)6-Rnr2-Rnr4; Tris-d11 10 mM pH 7.5; 22°C (50 uM Hug1, ratios 1:0.125 to 1:1.6, global fit of four peaks, 1:1 model) and 9°C (16.4 uM Hug1, ratio 1:2)", "details": "both partners purified"}}}
{"molecule": "Spd1 (from UniProt Q10585)", "values": [{"measurement": "Kd", "setting": "[1]", "value": 2400, "unit": "nM"}]}
{"molecule": "RNR R1 (from UniProt P00452)", "values": [{"measurement": "Kd", "setting": "[2]", "value": 100, "unit": "nM"}]}
{"molecule": "Dif1 (from UniProt O13577)", "values": [{"measurement": "Kd", "setting": "[3]", "value": 600, "unit": "nM"}]}
{"molecule": "Sml1 (from UniProt Q04964)", "values": [{"measurement": "Kd", "setting": "[4]", "value": 400, "unit": "nM"}]}
{"molecule": "RNR R1 (from UniProt P07742)", "values": [{"measurement": "Kd", "setting": "[5]", "value": 100, "unit": "nM"}]}
{"molecule": "B1", "values": [{"measurement": "Kd", "setting": "[6]", "value": "1600 ± 600", "unit": "nM"}]}
